Data from the supplement of paper PMC5998384.

How the values were obtained:
HeLa Kyoto [1] = test: solubility in G1/S (NP-40 vs SDS abundance) (log2 ratio); higher = more soluble; conditions: cell cycle stage: G1/S
HeLa Kyoto [2] = test: melting temperature (median over replicates), in situ; higher = more thermally stable
HeLa Kyoto [3] = test: solubility change mitosis vs G1/S (difference of NP-40 vs SDS log2 ratios) (log2 ratio difference); higher = more soluble in mitosis
HeLa Kyoto [4] = test: thermal stability score vs G1/S (z-score of summed log2 fold changes over temperatures); higher = more thermally stable than in G1/S
[5] = cell cycle stage: early G1 (4.5 h after nocodazole release)
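Wherever melting temperature (median over replicates), in situ is given: HeLa Kyoto cells synchronized by double thymidine or nocodazole block, proteins quantified by TMT10plex mass spectrometry, three independent biological replicates.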
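Wherever solubility change mitosis vs G1/S (difference of NP-40 vs SDS log2 ratios) is given: synchronized HeLa Kyoto cells (double thymidine block for G1/S, nocodazole release for mitosis), protein amounts in NP-40 versus SDS lysates quantified by mass spectrometry, three biological replicates.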
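Wherever solubility in G1/S (NP-40 vs SDS abundance) is given: HeLa Kyoto cells arrested at G1/S by double thymidine block, proteins quantified by TMT10plex mass spectrometry in mild NP-40 versus SDS extracts, three biological replicates.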
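Wherever thermal stability score vs G1/S (z-score of summed log2 fold changes over temperatures) is given: synchronized HeLa Kyoto cells, proteins quantified by TMT10plex mass spectrometry, three biological replicates, mitosis taken 0.5 h after nocodazole release, G1/S directly after double thymidine block.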

## MRVESGSAQERGILLESLSTLLEKTTASHEGRAPGNRELTDLLPPEVCSLLNPAAIYANNEISLRDVEVYGFDYDYTLAQYADALHPEIFSTARDILIEHYKYPEGIRKYDYNPSFAIRGLHYDIQKSLLMKIDAFHYVQLGTAYRGLQPVPDEEVIELYGGTQHIPLYQMSGFYGKGPSIKQFMDIFSLPEMALLSCVVDYFLGHSLEFDQAHLYKDVTDAIRDVHVKGLMYQWIEQDMEKYILRGDETFAVLSRLVAHGKQLFLITNSPFSFVDKGMRHMVGPDWRQLFDVVIVQADKPSFFTDRRKPFRKLDEKGSLQWDRITRLEKGKIYRQGNLFDFLRLTEWRGPRVLYFGDHLYSDLADLMLRHGWRTGAIIPELEREIRIINTEQYMHSLTWQQALTGLLERMQTYQDAESRQVLAAWMKERQELRCITKALFNAQFGSIFRTFHNPTYFSRRLVRFSDLYMASLSCLLNYRVDFTFYPRRTPLQHEAPLWMDQLCTGCMKTPFLGDMAHIR [NT5DC2]
HeLa Kyoto [1]
  solubility in G1/S (log2): -0.284
HeLa Kyoto [2]; cell cycle stage: G1/S
  melting temperature: 53.1 °C
HeLa Kyoto [2]; cell cycle stage: mitosis
  melting temperature: 52.6 °C
HeLa Kyoto [3]
  solubility change mitosis (log2): -0.0879
HeLa Kyoto [4]; [5]
  thermal stability score: -0.133
HeLa Kyoto [4]; cell cycle stage: mitosis
  thermal stability score: 0.934

## MERAVPLAVPLGQTEVFQALQRLHMTIFSQSVSPCGKFLAAGNNYGQIAIFSLSSALSSEAKEESKKPVVTFQAHDGPVYSMVSTDRHLLSAGDGEVKAWLWAEMLKKGCKELWRRQPPYRTSLEVPEINALLLVPKENSLILAGGDCQLHTMDLETGTFTRVLRGHTDYIHCLALRERSPEVLSGGEDGAVRLWDLRTAKEVQTIEVYKHEECSRPHNGRWIGCLATDSDWMVCGGGPALTLWHLRSSTPTTIFPIRAPQKHVTFYQDLILSAGQGRCVNQWQLSGELKAQVPGSSPGLLSLSLNQQPAAPECKVLTAAGNSCRVDVFTNLGYRAFSLSF [THOC6]
HeLa Kyoto [1]
  solubility in G1/S (log2): -0.108
HeLa Kyoto [2]; cell cycle stage: G1/S
  melting temperature: 51.8 °C
HeLa Kyoto [2]; cell cycle stage: mitosis
  melting temperature: 51.2 °C
HeLa Kyoto [3]
  solubility change mitosis (log2): 0.108
HeLa Kyoto [4]; [5]
  thermal stability score: -0.465
HeLa Kyoto [4]; cell cycle stage: mitosis
  thermal stability score: -0.675

## MTDQENNNNISSNPFAALFGSLADAKQFAAIQKEQLKQQSDELPASPDDSDNSVSESLDEFDYSVAEISRSFRSQQEICEQLNINHMIQRIFLITLDNSDPSLKSGNGIPSRCVYLEEMAVELEDQDWLDMSNVEQALFARLLLQDPGNHLINMTSSTTLNLSADRDAGERHIFCYLYSCFQRAKEEITKVPENLLPFAVQCRNLTVSNTRTVLLTPEIYVDQNIHEQLVDLMLEAIQGAHFEDVTEFLEEVIEALILDEEVRTFPEVMIPVFDILLGRIKDLELCQILLYAYLDILLYFTRQKDMAKVFVEYIQPKDPTNGQMYQKTLLGVILSISCLLKTPGVVENHGYFLNPSRSSPQEIKVQEANIHQFMAQFHEKIYQMLKNLLQLSPETKHCILSWLGNCLHANAGRTKIWANQMPEIFFQMYASDAFFLNLGAALLKLCQPFCKPRSSRLLTFNPTYCALKELNDEERKIKNVHMRGLDKETCLIPAVQEPKFPQNYNLVTENLALTEYTLYLGFHRLHDQMVKINQNLHRLQVAWRDAQQSSSPAADNLREQFERLMTIYLSTKTAMTEPQMLQNCLNLQVSMAVLLVQLAIGNEGSQPIELTFPLPDGYSSLAYVPEFFADNLGDFLIFLRRFADDILETSADSLEHVLHFITIFTGSIERMKNPHLRAKLAEVLEAVMPHLDQTPNPLVSSVFHRKRVFCNFQYAPQLAEALIKVFVDIEFTGDPHQFEQKFNYRRPMYPILRYMWGTDTYRESIKDLADYASKNLEAMNPPLFLRFLNLLMNDAIFLLDEAIQYLSKIKIQQIEKDRGEWDSLTPEARREKEAGLQMFGQLARFHNIMSNETIGTLAFLTSEIKSLFVHPFLAERIISMLNYFLQHLVGPKMGALKVKDFSEFDFKPQQLVSDICTIYLNLGDEENFCATVPKDGRSYSPTLFAQTVRVLKKINKPGNMIMAFSNLAERIKSLADLQQQEEETYADACDEFLDPIMSTLMCDPVVLPSSRVTVDRSTIARHLLSDQTDPFNRSPLTMDQIRPNTELKEKIQRWLAERKQQKEQLE [UBE4A]
HeLa Kyoto [1]
  solubility in G1/S (log2): -0.123
HeLa Kyoto [2]; cell cycle stage: G1/S
  melting temperature: 49.4 °C
HeLa Kyoto [2]; cell cycle stage: mitosis
  melting temperature: 50 °C
HeLa Kyoto [3]
  solubility change mitosis (log2): -0.0832
HeLa Kyoto [4]; [5]
  thermal stability score: -0.166
HeLa Kyoto [4]; cell cycle stage: mitosis
  thermal stability score: 0.519

## MEEVPHDCPGADSAQAGRGASCQGCPNQRLCASGAGATPDTAIEEIKEKMKTVKHKILVLSGKGGVGKSTFSAHLAHGLAEDENTQIALLDIDICGPSIPKIMGLEGEQVHQSGSGWSPVYVEDNLGVMSVGFLLSSPDDAVIWRGPKKNGMIKQFLRDVDWGEVDYLIVDTPPGTSDEHLSVVRYLATAHIDGAVIITTPQEVSLQDVRKEINFCRKVKLPIIGVVENMSGFICPKCKKESQIFPPTTGGAELMCQDLEVPLLGRVPLDPLIGKNCDKGQSFFIDAPDSPATLAYRSIIQRIQEFCNLHQSKEENLISS [NUBP1]
HeLa Kyoto [1]
  solubility in G1/S (log2): 0.398
HeLa Kyoto [2]; cell cycle stage: G1/S
  melting temperature: 52.4 °C
HeLa Kyoto [2]; cell cycle stage: mitosis
  melting temperature: 52.7 °C
HeLa Kyoto [3]
  solubility change mitosis (log2): 0.00361
HeLa Kyoto [4]; [5]
  thermal stability score: 3.38
HeLa Kyoto [4]; cell cycle stage: mitosis
  thermal stability score: 2.05

## MADIIARLREDGIQKRVIQEGRGELPDFQDGTKATFHYRTLHSDDEGTVLDDSRARGKPMELIIGKKFKLPVWETIVCTMREGEIAQFLCDIKHVVLYPLVAKSLRNIAVGKDPLEGQRHCCGVAQMREHSSLGHADLDALQQNPQPLIFHMEMLKVESPGTYQQDPWAMTDEEKAKAVPLIHQEGNRLYREGHVKEAAAKYYDAIACLKNLQMKEQPGSPEWIQLDQQITPLLLNYCQCKLVVEEYYEVLDHCSSILNKYDDNVKAYFKRGKAHAAVWNAQEAQADFAKVLELDPALAPVVSRELRALEARIRQKDEEDKARFRGIFSH [AIP]
HeLa Kyoto [1]
  solubility in G1/S (log2): 0.556
HeLa Kyoto [2]; cell cycle stage: G1/S
  melting temperature: 49.3 °C
HeLa Kyoto [2]; cell cycle stage: mitosis
  melting temperature: 50.3 °C
HeLa Kyoto [3]
  solubility change mitosis (log2): -0.0524
HeLa Kyoto [4]; [5]
  thermal stability score: 1.14
HeLa Kyoto [4]; cell cycle stage: mitosis
  thermal stability score: 1.52

## C20ORF27
HeLa Kyoto [1]
  solubility in G1/S (log2): 0.205
HeLa Kyoto [2]; cell cycle stage: G1/S
  melting temperature: 53.3 °C
HeLa Kyoto [2]; cell cycle stage: mitosis
  melting temperature: 54.8 °C
HeLa Kyoto [3]
  solubility change mitosis (log2): -0.035
HeLa Kyoto [4]; [5]
  thermal stability score: -0.424
HeLa Kyoto [4]; cell cycle stage: mitosis
  thermal stability score: -1.13
